1 molecule from patent US20240287172A1 (SCIRHOM, published 2024) can be followed below.

This experiment has as its target T1, human iRhom2, endogenously expressed (human, UniProt Q6PJF5 1-856).
T1 sequence: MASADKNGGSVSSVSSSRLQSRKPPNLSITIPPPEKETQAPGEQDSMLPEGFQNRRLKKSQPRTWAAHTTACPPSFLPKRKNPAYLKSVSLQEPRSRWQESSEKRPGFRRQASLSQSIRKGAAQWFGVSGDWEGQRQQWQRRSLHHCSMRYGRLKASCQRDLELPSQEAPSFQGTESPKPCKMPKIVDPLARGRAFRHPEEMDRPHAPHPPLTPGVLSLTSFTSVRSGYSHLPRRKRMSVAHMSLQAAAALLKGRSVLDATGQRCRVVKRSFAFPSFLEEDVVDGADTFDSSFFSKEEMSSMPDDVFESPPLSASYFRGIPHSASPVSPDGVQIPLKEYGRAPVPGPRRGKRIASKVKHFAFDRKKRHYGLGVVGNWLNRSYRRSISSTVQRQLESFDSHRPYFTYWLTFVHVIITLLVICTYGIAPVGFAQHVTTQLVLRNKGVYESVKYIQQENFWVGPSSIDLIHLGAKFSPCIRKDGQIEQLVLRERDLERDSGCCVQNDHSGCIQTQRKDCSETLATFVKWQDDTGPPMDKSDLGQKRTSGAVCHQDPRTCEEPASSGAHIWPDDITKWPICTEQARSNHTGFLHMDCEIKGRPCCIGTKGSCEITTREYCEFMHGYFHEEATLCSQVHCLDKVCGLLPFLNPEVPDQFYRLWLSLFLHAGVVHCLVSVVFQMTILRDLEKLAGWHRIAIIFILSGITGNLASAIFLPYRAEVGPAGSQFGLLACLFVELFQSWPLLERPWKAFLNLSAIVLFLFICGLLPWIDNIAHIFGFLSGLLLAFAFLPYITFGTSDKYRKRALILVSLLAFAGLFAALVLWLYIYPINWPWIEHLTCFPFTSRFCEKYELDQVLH
Put plainly: cell-based or functional assay.

B1: antibody 16 (antibody, V domains shown)
VH: QVTLKESGPGILQPSQTLSLTCSFSGFSLSTFALGVGWIRQPSGRGLEWLAHIWWDDDKYYNPALKSRLTISKDTSKNHVFLKIANVDTADTATYYCARITTYYYGMDYWGQGTSVTVSS
VL: DIVLSQSPATLSVTPGDSVSLFCRASQSIGNHLHWYQQESHASPRLLIKYASQSISGIPSRFSGSGSGTDFTLSINSVETEDFGMYFCQQSYNWPLTFGAGTKLELK
notes: mouse IgG, kappa light chain; also called clone #16; purified antibody 16
For B1, the “LPS-induced TNFα release from PBMCs of healthy donors, percent inhibition, 1 µg/ml” value was determined as 81.3%; the “LPS-induced TNFα release from THP-1 cells, percent inhibition, 10 µg/ml, hybridoma-purified” value is 65.4%; the “LPS-induced TNFα release from THP-1 cells, percent inhibition, recombinant antibody” value was 70.7%; the “LPS-induced TNFα release from human macrophages of healthy donors, percent inhibition, 10 µg/ml” value is 85.8%. The “PMA-induced HB-EGF release from PBMCs of healthy donors, percent inhibition, 1 µg/ml” value was found to be 71.6%; the “PMA-induced HB-EGF release from THP-1 cells, percent inhibition, 3 µg/ml” value is 71.9%; the “PMA-induced HB-EGF release from U-937 cells, percent inhibition” value worked out at 99.6%; the “PMA-induced IL-6R release from PBMCs of healthy donors, percent inhibition, 1 µg/ml” value came out at 84.3%. For the same molecule, the “PMA-induced IL-6R release from THP-1 cells, percent inhibition, 1 µg/ml” value was found to be 72.5%; the “PMA-induced IL-6R release from U-937 cells, percent inhibition, 1 µg/ml” value was determined as 77.7%; the “PMA-induced IL-6R release from U-937 cells, percent inhibition, 3 µg/ml” value stood at 77.4%; the “PMA-induced TGFα release from PC3 cells, percent inhibition, 1 µg/ml” value worked out at 13.9%. For the same molecule, the “PMA-induced TNFα release from U-937 cells, percent inhibition, 1 µg/ml” value was 91.6% and the “PMA-induced TNFα release from U-937 cells, percent inhibition, 3 µg/ml” value was 91.9%.
